Experimental data as given in the supplement of paper PMC7877785.
± gives the uncertainty stated by the source.

Assay: self-splicing fitness, log relative to wild type (ln ratio); higher = more splicing; Tetrahymena group I intron in knt gene, E. coli kanamycin selection, DiMSum; sequences stand for … in CUCUCU…GGAGGGAAAAGUUAUCAGGCAUGCACCUGGUAGCUAGUCUUUAAACCAAUAGAUUGCAUCGGUUUAAAAGGCAAGACCGUCAAAUUGCGGGAAAGGGGUCAACAGCCGUUCAGUACCAAGUCUCAGGGGAAACUUUGAGAUGGCCUUGCAAAGGGUAUGGUAAUAAGCUGACGGACAUGGUCCUAACCACGCAGCCAAGUCCUAAGUCAACAGAUCUUCUGUUGAUAUGGAUGCAGUUCACAGACUAAAUGUCGGUCGGGGAAGAUGUAUUCUUCUCAUAAGAUAUAGUCGGACCUCUCCUUAAUGGGAGCUAGCGGAUGAAGUGAUGCAACACUGGAGCCGCUGGGAACUAAUUUGUAUGCGAAAGUAUAUUGAUUAGUUUUGGAGUACUCGUGGUCG
Summary of the method: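 Library with all eight P1ex-region intron nucleotides randomised, intron inside the knt kanamycin-resistance gene on pET-22b(+), in E. coli BL21(DE3). Cells grew overnight at 37°C or 30°C on LB agar with or without 25 μg/mL kanamycin (plus 100 μg/mL carbenicillin, 50 μM IPTG, 0.2% rhamnose), in six replicate transformations. Pooled colonies were amplicon-sequenced on Illumina HiSeq 2500. DiMSum fitness is the error-weighted combination of wild-type-normalised replicate fold changes, kanamycin versus none.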

Row | Sequence | self-splicing fitness (ln) (30 °C) | self-splicing fitness (ln) (37 °C)
1 | CGCAAGCAAUAUUACGCUGA | -3.11 ± 0.26 | -2.01 ± 0.22
2 | UCGAAGCAAUAUUACGUCAG | -0.27 ± 0.089 | -0.968 ± 0.12
3 | CUUUAGCAAUAUUACGGGUA | -3.97 ± 0.47 | -2.56 ± 0.21
4 | GAUCAGCAAUAUUACGCACU | 0.181 ± 0.092 | 0.467 ± 0.1
5 | GCUGAGCAAUAUUACGCGUG | -1.54 ± 0.11 | -0.878 ± 0.13
6 | CAGUAGCAAUAUUACGAAUA | -4.27 ± 0.43 | -1.71 ± 0.2
7 | GUCUAGCAAUAUUACGUCCU | -0.102 ± 0.16 | -0.136 ± 0.14
8 | UUUUAGCAAUAUUACGAAUC |  | -1.38 ± 0.4
9 | GGCGAGCAAUAUUACGGUCC |  | -2.99 ± 0.43
10 | CUGCAGCAAUAUUACGAAUG | -0.593 ± 0.066 | -0.0469 ± 0.081
11 | CACAAGCAAUAUUACGGCAU | -3.26 ± 0.12 | -2.33 ± 0.12
12 | CCGGAGCAAUAUUACGAUUG | -0.529 ± 0.094 | 0.132 ± 0.14
13 | UUAAAGCAAUAUUACGCUUG | -0.897 ± 0.096 | 0.0122 ± 0.12
14 | CUGAAGCAAUAUUACGACGA | -1.04 ± 0.097 | -0.00885 ± 0.14
15 | CCUAAGCAAUAUUACGGGUU | -3.52 ± 0.2 | -2.84 ± 0.2
16 | CGUCAGCAAUAUUACGCACA | -0.869 ± 0.09 | 0.0106 ± 0.13
17 | AACAAGCAAUAUUACGUGUU | -4.01 ± 0.19 | -2.05 ± 0.12
18 | GAGAAGCAAUAUUACGUUCU | -4 ± 0.36 | -2.01 ± 0.23
19 | CUGAAGCAAUAUUACGAACU | -3.64 ± 0.19 | -2.37 ± 0.23
20 | CUUCAGCAAUAUUACGAAUG | -0.722 ± 0.065 | -0.456 ± 0.093
21 | AGUUAGCAAUAUUACGGCCU | -0.544 ± 0.11 | 0.22 ± 0.13
22 | GAAAAGCAAUAUUACGUAUC | -3.9 ± 0.15 | -1.48 ± 0.1
23 | AUUUAGCAAUAUUACGAGGA | -2.7 ± 0.49 | -2.18 ± 0.4
24 | CGUUAGCAAUAUUACGCCGC | -3.14 ± 0.3 | -2.73 ± 0.43
25 | CACCAGCAAUAUUACGCUAA | -2.78 ± 0.13 | -2.33 ± 0.16

Row | Sequence | self-splicing fitness (ln) (30 °C) | self-splicing fitness (ln) (37 °C)
26 | GGCAAGCAAUAUUACGUGCC |  | -1.47 ± 0.43
27 | UAAGAGCAAUAUUACGCACG | -2.42 ± 0.15 | -1.84 ± 0.15
28 | UAUCAGCAAUAUUACGAUUC | -0.925 ± 0.081 | -0.0952 ± 0.092
29 | AUGCAGCAAUAUUACGGUUU | -0.723 ± 0.065 | -0.427 ± 0.075
30 | GCAAAGCAAUAUUACGUAAC | -1.67 ± 0.12 | -0.338 ± 0.15
31 | CAAUAGCAAUAUUACGCAAG | -1.19 ± 0.1 | -0.905 ± 0.14
32 | CCCGAGCAAUAUUACGAUCA | -2.79 ± 0.28 | -2.98 ± 0.33
33 | UCGCAGCAAUAUUACGCCUC |  | -2.36 ± 0.39
34 | ACUUAGCAAUAUUACGGAAG | -2.44 ± 0.13 | -1.25 ± 0.14
35 | AACAAGCAAUAUUACGGAAA | -3.08 ± 0.15 | -1.34 ± 0.11
36 | ACAGAGCAAUAUUACGGAAG | -3.52 ± 0.22 | -2.12 ± 0.22
37 | CGAAAGCAAUAUUACGGACA | -0.806 ± 0.074 | 0.186 ± 0.091
38 | AGAUAGCAAUAUUACGGUUU | -0.692 ± 0.055 | -0.341 ± 0.076
39 | CAUAAGCAAUAUUACGGCGC | -2.68 ± 0.42 | -3.17 ± 0.35
40 | CCGGAGCAAUAUUACGUACU | -4.13 ± 0.44 | -3.36 ± 0.42
41 | CCCAAGCAAUAUUACGCCUC | -2.93 ± 0.25 | -2.93 ± 0.34
42 | UCUUAGCAAUAUUACGACCA | -1.32 ± 0.48 | 
43 | GUGGAGCAAUAUUACGAGUU |  | -1.7 ± 0.43
44 | GCGGAGCAAUAUUACGUCUU | -2.3 ± 0.22 | -0.899 ± 0.22
45 | GGGCAGCAAUAUUACGACGG | -3.78 ± 0.35 | -1.4 ± 0.27
46 | AGAAAGCAAUAUUACGUCGU | -1.9 ± 0.059 | -0.452 ± 0.081
47 | ACACAGCAAUAUUACGGUAU | -2.59 ± 0.088 | -1.59 ± 0.092
48 | AGAAAGCAAUAUUACGUCAG | -1.94 ± 0.093 | -0.978 ± 0.11
49 | UUCCAGCAAUAUUACGUACA | -1.11 ± 0.1 | -0.862 ± 0.12
50 | CGCAAGCAAUAUUACGUUGC | -3.41 ± 0.17 | -3.62 ± 0.29

Row | Sequence | self-splicing fitness (ln) (30 °C) | self-splicing fitness (ln) (37 °C)
51 | UCGAAGCAAUAUUACGUGAG | -0.469 ± 0.053 | -0.72 ± 0.088
52 | UAUCAGCAAUAUUACGUUGA | -2.15 ± 0.18 | -1.95 ± 0.18
53 | CUGAAGCAAUAUUACGCCAG | -3.75 ± 0.29 | -1.17 ± 0.21
54 | ACGGAGCAAUAUUACGGCUG | -2.87 ± 0.12 | -1.26 ± 0.13
55 | AUCCAGCAAUAUUACGGAGU | -3.02 ± 0.098 | -1.99 ± 0.11
56 | CCAAAGCAAUAUUACGUUAA | -3.93 ± 0.26 | -1.97 ± 0.22
57 | CACAAGCAAUAUUACGGUUU | -3.34 ± 0.14 | -2.59 ± 0.19
58 | CCGUAGCAAUAUUACGUAUA | -2.74 ± 0.18 | -2.72 ± 0.27
59 | GGUCAGCAAUAUUACGUUGG | -3.35 ± 0.21 | -2.51 ± 0.2
60 | CCCAAGCAAUAUUACGUCAA | -1.84 ± 0.14 | -2.3 ± 0.19
61 | UAUCAGCAAUAUUACGCAUC | -1.87 ± 0.085 | -0.409 ± 0.12
62 | UGUGAGCAAUAUUACGCUGC | -1.9 ± 0.25 | 
63 | GCCCAGCAAUAUUACGGCUG | -4.14 ± 0.2 | -2.22 ± 0.15
64 | CAGCAGCAAUAUUACGAGUA | -3.05 ± 0.19 | -1.77 ± 0.18
65 | UCCGAGCAAUAUUACGAUGC | -1.93 ± 0.19 | 
66 | CAAUAGCAAUAUUACGUGAG | -0.424 ± 0.076 | 0.678 ± 0.11
67 | GUACAGCAAUAUUACGUUUC | -3.44 ± 0.14 | -1.87 ± 0.14
68 | AGUUAGCAAUAUUACGCACU | -1.6 ± 0.26 | -1.09 ± 0.23
69 | GCUGAGCAAUAUUACGGUUA | -1.74 ± 0.14 | -0.208 ± 0.1
70 | GAGCAGCAAUAUUACGUAUU | -2.62 ± 0.066 | -1.32 ± 0.075
71 | UAUAAGCAAUAUUACGGCCU | -0.92 ± 0.16 | -0.641 ± 0.23
72 | AGCAAGCAAUAUUACGCUUG | -4.25 ± 0.28 | -1.29 ± 0.2
73 | GCACAGCAAUAUUACGCGGG | -2.13 ± 0.069 | -1.39 ± 0.081
74 | AGUGAGCAAUAUUACGCACG | -1.58 ± 0.18 | -0.941 ± 0.17
75 | ACUUAGCAAUAUUACGCACC | -1.99 ± 0.23 | 0.826 ± 0.29

Row | Sequence | self-splicing fitness (ln) (30 °C) | self-splicing fitness (ln) (37 °C)
76 | GCCUAGCAAUAUUACGUCUU | -1.54 ± 0.098 | -1.68 ± 0.11
77 | AUGAAGCAAUAUUACGCUGC | -2.7 ± 0.24 | -2.42 ± 0.44
78 | CUCCAGCAAUAUUACGCUAU | -3.89 ± 0.33 | -2.44 ± 0.22
79 | GAACAGCAAUAUUACGGGAG | -2.06 ± 0.086 | -1.47 ± 0.097
80 | CCGUAGCAAUAUUACGUGGC | -3.76 ± 0.26 | -2.73 ± 0.26
81 | GACGAGCAAUAUUACGGAGA |  | -2.9 ± 0.38
82 | UAGCAGCAAUAUUACGAUUC | -3.06 ± 0.14 | -2.94 ± 0.15
83 | CAUAAGCAAUAUUACGGGGA | -2.02 ± 0.17 | -2.83 ± 0.23
84 | CUACAGCAAUAUUACGACGG | -0.839 ± 0.063 | -0.265 ± 0.095
85 | UGGAAGCAAUAUUACGAGGU | -2.77 ± 0.42 | -2.08 ± 0.4
86 | UUUAAGCAAUAUUACGUCGA | -0.771 ± 0.092 | -0.225 ± 0.1
87 | GAUGAGCAAUAUUACGUGGG | -3.45 ± 0.21 | -3.04 ± 0.27
88 | GAAGAGCAAUAUUACGUGAU | -3.4 ± 0.14 | -1.51 ± 0.13
89 | UGAGAGCAAUAUUACGCCUU | -3 ± 0.18 | -3.73 ± 0.34
90 | UAGGAGCAAUAUUACGAGUC | -3.68 ± 0.33 | -2.78 ± 0.3
91 | GCUGAGCAAUAUUACGUAUA | -3.69 ± 0.26 | -2.22 ± 0.29
92 | AGACAGCAAUAUUACGCCGA | -2.06 ± 0.089 | -0.863 ± 0.094
93 | AUCGAGCAAUAUUACGUAGC | -4.41 ± 0.42 | -1.79 ± 0.26
94 | AGAGAGCAAUAUUACGAAAU | -3.71 ± 0.33 | -1.89 ± 0.24
95 | AAACAGCAAUAUUACGGCUA | -0.275 ± 0.064 | -0.0695 ± 0.076
96 | AAGAAGCAAUAUUACGAGCA | -1.21 ± 0.12 | -0.225 ± 0.1
97 | CUCUAGCAAUAUUACGGCCG | -2.41 ± 0.22 | -2.2 ± 0.23
98 | AUCUAGCAAUAUUACGAAAU | -1.81 ± 0.11 | -0.899 ± 0.11
